20 sequences from the DeepSol protein solubility set can be followed below.

This series is described as follows: soluble on expression in E. coli; label from the status in PepcDB or PDB records.
As to “MDQNIPCQFFSFENTALAVRHRKGHCFPGLVWLSGYQSDMLGSKAMLVDNFAQKNDLSCLRFDYSGHGESEGDFFQGTISRWVKESLAIFETYCEGPQILIGSSMGGWIALKLAMMLAQKNKRLAGMVLVAPAPDFTQTLVEPKLGLEEWKILEEKGYIERPAVGDEEPMPFTKGLIEDGRDNCVMKGCLDIGCPIHILQGMEDDKIPYQHTLTLMNHLPLHDVTLTLVRDADHRFSRPQDLECLETVLSILIDRINAG”, the “soluble on expression in E. coli” value is “not soluble”.
With “MDREQVVALQHQRFAAKKYDPNRRISQKDWEALVEVGRLAPSSIGLEPWKMLLLKNERMKEDLKPMAWGALFGLEGASHFVIYLARKGVTYDSDYVKKVMHEVKKRDYDTNSRFAQIIKNFQENDMKLNSERSLFDWASKQTYIQMANMMMAAAMLGIDSCPIEGYDQEKVEAYLEEKGYLNTAEFGVSVMACFGYRNQEITPKTRWKTEVIYEVIE”, the “soluble on expression in E. coli” value was “soluble”.
The result for “MDRKFNSDEQWYISPLLNLATVKEEMLEVRELGEVIIDRTMDDFDSKTEKEHEMEMWKNSLSYIQGVTEEESLEAIEEVSNLDMFLEGSSDVQTRRFEDMKGDRKFLERSPLVSHKHVISREKTMKTSRQRKSAYVTSLKYDKYMLNAGANTSLFHPQCSILEKCEDDIVLIVDALMPYNRELLSSELRSSRLLKPMTKFLVRGDTLLSDLRQKFVCQSDTIVPLENGLELDPPNLDNATAVRFPSSFIFVHDTFYVDMPPNAIDISHPIRNFMLHREIYDPVEACSMEGVRIIDLKLRLGQPYIFQHSGNCEHLLVFHDLRLLHESDPWGIDKYPFTLYEKGNEKKCDICKKGHVEFVVERHELLPNTYTHFCRTCFQEFNYVHGVKTHSFIAWPYTELQTGEQRGWPFGDFEQEDD” reads “not soluble”.
The result for “MDRKIREQIIAIYSNLQHKQDLTQFAHCLTTKADDNCEDFFNLGLQFQNNQLTALGFNGEGCIISTIASELTLSALEGKTIKEAIVLLEQFMEAVQTGSLSTPLPQALQLLWDFQIDQKRLNCLLLTPQNLLQWLKDFSH” reads “soluble”; that for “MDRKVAREFRHKVDFLIENDAEKDYLYDVLRMYHQTMDVAVLVGDLKLVINEPSRLPLFDAIRPLIPLKHQVEYDQLTPRRSRKLKEVRLDRLHPEGLGLSVRGGLEFGCGLFISHLIKGGQADSVGLQVGDEIVRINGYSISSCTHEEVINLIRTEKTVSIKVRHIGLIPVKSSPDEPLTWQYVDQFVSES”, “soluble”; that for “MDSAFVDRAWDKWVTTGNVGSSDFEKKMKNPERKNKMLLFGDLIVGICSGPSRLLSTIAKQEGIDIYPVDLKQFIDFMRCGNLPTETFVLGSNQCKNIITSIHENWFAARCLNTSQPAGEGAIVMQTAVYVLVALYDGSIGSASQAMAAADQFASQLSRKNF”, “soluble”.
Regarding “MDSGINNISRFRIDHSFHKLHYAMHSAHSHTYYELFYMMHGNCTISIDNRLFTLSEGNIIFIPANSVHRTSYIGELVPERTYIEFSKDYIETISQTLGKNWAEHNLWGHILYIEKEKREKIDFLFREIQKEYDIVDGYSDCCIRQLFQYLIINLIRLDRNTKDIKEFITNSDNKINQNMIIAAKYIAENFKNDITLKDVASHLNLNPSYFSSKFKAFNNIGFAEYLRNIRVNHAEWYLIETDLSLSDIASECGFCNSNYFGDTFKLVNGISPSEFRKNNKPKKAEN”, the “soluble on expression in E. coli” value is given as “not soluble”.
The result for “MDSIPLEKPHVVSLIGGFGYREPIFRKVLTTAMLDPGINYTLISGPSLDPSKLGGVPKNVRILNFVEDTYPYIKSSDAVIAPGGHSTIMEALSFGVPILSFPDEGHSEQESNAAVVEEEGYGRMLSYSTPPEVILECIREVIEDEAYRNKVERLQRLSGELEHHHHHH” reads “soluble”; that for “MDSLKGMAIFATVVDKGSMAAAAQSLGMTPSAVSQQIRKLESRAQVTLLHRTTRRLTLTEAGEAFYRSCAQMLAIAEEAERRLGEWRDAPVGELRLAAPVGFSGTLITQALKPLLENHRQLRLQLFFQDERIDLVAERIDLAIRVGNLADSSLVARHLGDWSSVLCAAPAYLRQRAPINRPEQLTEVDWISLNTSNHLNHLTLSGPGGEVCKLRLEPRVAANGMLAVRQFTLDGLGVSYQPLPEVRDALNDGRLQQLLPEWRIPGLGIYAVTPRREAQPAKVKVAIEALRRAFATDGDERWS”, “not soluble”.
The result for “MDSTMTNYMGQENLPPALKLINDKSYQYSTHKHNIETSNDGTLHSYTIVLSREPLESPTSYNKYQKNVEPVQKENQKPKDLNKMTAGPHIAVKNSSGLVSQISSTTSSERKRRTLARPSSSSESDLKVGNIQQSNQYFTLPSVMKPSALSTEDPKKVIVQSNTSSSSMSDASSKKSLPTYTYLSGHTTGSARYVTMVNVKFLLLHCDVLQRRAQSMFTDEFPSDCRLEEVVINFHQLCCRQLLDQNFNPRLSYCIGELNYSDSKPVSANDMSKTLAQLATTQSIAQLSIIVDVTEKNMKLK” reads “not soluble”; that for “MDTDIRDFIIEDDLFDPFMDENEDDDRAEIDEEPETPLIGEPLDEWKKPVEDWRPAQVRIKDLFEEMPGQKRMMLKIIDYCREERTGEEMDVFTNDLKQYCYSVYSPVVFRELLEEAGAIEYIKPDEPEGSQDAAQSEERAQAGGELPEEAVSPHRGDVYGTLPVDDESTLVPIDGADIVHESYIEGDEEIQMDFLEITPCEPGTWKATEAGLEAVDSMDDLDGTKELLGKEPKYLDIYHQILDYCQDEYGRSSKEIDKLVNDSPLLEEPRRYSGYFVSRLEKQGALEWRNGWFVTEVGKKIIEEAAAHV”, “not soluble”.
Consider “MDTIIYYSEMEGISLEHLKRSSGYDMRSNHFHNEYEIYFLTEGERLFFFNNRAYQVKKGSLILVDTNLIHMTHAPEDDTTGYTRIILYIDKFKMQQFDEKFPHLNLVPFFREHYGVYNLTQKQQEKFLHMYEVLKTEFSNRSRSYKALIEMEIIHYFIDFIRDNPELTPIKDETAIHKSSKYQ”, for which the “soluble on expression in E. coli” value is “not soluble”.
For “MDTIWDADLQSAALKAEHHRLKTERLSLGYEGKSVCDALDLAIPHGKFSVIVGPNGCGKSTLLKSLCRLLKPLAGQVLLDGQNIHQLPTKVVAKQLGLLPQSALTPEGIKVVDLVSRGRYPHQGLFRQWSRVDERAVEEAMRATHVHELAQHSVDQLSGGQRQRVWVAMALAQQTPYLLLDEPTTYLDIAHQIELLDLFWRLNRQQGHTLVAVLHDLNQACRYADHLIVLQEGKIVAQGDPHSLVTPALVKQVFGIDCVVMPDPISCTPLIIPYSLKRG” the value was “not soluble”; for “MDTLPECPITNTASLLPHSGRMVLIDRITRYGDDFVEAGAQVSPNHILLLDDKLPYTAFIELMAQAVGAYAGIQARKNARSVRLGFLLGTRKLEIFAQSVPIGTHLLATAHMSIQDAGGMGVFDCELRWTDAPETSSETLPSDGILARASLNVYSPEHPAGTTDAVLEHHHHHH”, “not soluble”.
For “MDTNSLLSAGSDMAKAANLSDADIIQLSDAACKQSDQESKIAPAGNKYSVRLTKLMRGFGNMTLNGQKVNYKVYMTEDVNAWAMGNGCVRVYTGLMDLMNDDELRGVIGHEMGHVALGHTKKAMQTAYAVSAARQAAGAAGNSVVASLSASQLGEMTEKFINAQFSQSQETAADDFSFDLLTEKKMNRKGLVTAFQKLAELDGGESSMFSSHPSSPDRAARMEKRLQAGKLEHHHHHH” the value was “soluble”.
Regarding “MDVSMLQSPQKRIKTIQKLAVSKKDVHDFKDIFEMLEEQKEKRNINIIQYDSLDDLSGDWSEYTFFCGNFDSDLFRTLTKHQETQALFIIGASVLKNKLLKNEDLMTLRAARPLYCELMKDVTMKLAAEVPNKRELVDLVHYMGGSVRKDTVSRTNVFIAAKVEAKVQSISLVGVPTMRADWVTECWKHRDDSYFDVMEPCFVDKHRLGVFEGLSLFFHGFKQTEIDDMLRSLENTGGKLAPSPTLATHVVYNPDNDEVETLAVSSNQVHVTKEWFWVSLHRGCCAIEDNFALPTGKLHRKPLESSSVSSPIGKSLRSQNSRSLSSMRDCSVEGPTSLNMTPDYIYSNDDVENSCKSPRQPSKRLRVCMEMVETEKNYLSLLKLVVKFKEALECEISHNEFMSRSDVAMMFGKLDPILELHERIFARLTVMSNEANTLLTVVNGKKNDDKNLDFAQVWIDAKEEMKKAYPQYINSYDTIKRLFDKQDRENSKFHTFCKAKESNPEFHRLKLTDLMVKPVQRLPSVILLLKEMAKKSDSKLKNNAEEAAKAIDEVLKTANKTREKNDNFISHLSKFTDIENVPPILVAANRMFIRELVVSPIASTSPGLQQFAKMKLFLFHDVLIITKIRSEKNTMQRLARHASFASLHSRQRRPYRYIDQIQLNTMRSAFRIRAPDEIAKCLELQQQNGSTKPNVFVWCLIHRDEQGGDIDTVFESNDDEEVRDFLDDIHVKILSDCGRFFYSSDPSDMNEINDAMVSDMTTRYFRNLCGAKPQYGHGSQMNITEWSHNESFMPPPQSQSRMRRAFSNAQLTLATTLGFGRNQSRNNLGQINENTTFLQSPRVSCDPAALANMTSVGGLPGCQSESESTPKRGIRSRLTSTTFLGGRHNILGRNTSMRRQATGFAHSEKELPRSKTSSYRVTDI”, the “soluble on expression in E. coli” value is given as “not soluble”.
For “MDVSYLLDSLNDKQREAVAAPRSNLLVLAGAGSGKTRVLVHRIAWLMSVENCSPYSIMAVTFTNKAAAEMRHRIGQLMGTSQGGMWVGTFHGLAHRLLRAHHMDANLPQDFQILDSEDQLRLLKRLIKAMNLDEKQWPPRQAMWYINSQKDEGLRPHHIQSYGNPVEQTWQKVYQAYQEACDRAGLVDFAELLLRAHELWLNKPHILQHYRERFTNILVDEFQDTNNIQYAWIRLLAGDTGKVMIVGDDDQSIYGWRGAQVENIQRFLNDFPGAETIRLEQNYRSTSNILSAANALIENNNGRLGKKLWTDGADGEPISLYCAFNELDEARFVVNRIKTWQDNGGALAECAILYRSNAQSRVLEEALLQASMPYRIYGGMRFFERQEIKDALSYLRLIVNRNDDAAFERVVNTPTRGIGDRTLDVVRQTSRDRQLTLWQACRELLQEKALAGRAASALQRFMELIDALAQETADMPLHVQTDRVIKDSGLRTMYEQEKGEKGQTRIENLEELVTATRQFSYNEEDEDLMPLQAFLSHAALEAGEGQADTWQDAVQLMTLHSAKGLEFPQVFIVGMEEGMFPSQMSLDEGGRLEEERRLAYVGVTRAMQKLTLTYAETRRLYGKEVYHRPSRFIGELPEECVEEVRLRATVSRPVSHQRMGTPMVENDSGYKLGQRVRHAK” the value was “soluble”.
For “MDVTCNIKNGRCEQFCKNSADNKVVCSCTEGYRLAENQKSCEPAVPFPCGRVSVSQTSK” the value was “soluble”.
For “MDVTDKIRPWMKECRLCPRNCGADRMAGQKGFCGTDTEIMVARAALHMWEEPCISGKEGSGAVFFSGCSLGCNFCQNRRISRGQRGKKITQEHLVELFFQLQEQGANNINLVTAGHFLPQVAVALEMAKEQGLHIPVVYNSSGYEKAKTLKMLDGLVDIYLPDFKYMDAVLAKKYSHAQDYPEIAKEALSEMVRQVGEAEFDSRGMMKKGVIVRQLLLPGHVKDAKNVLKYLYETYGDRIYISMMNQYTPMPAMKDDPQLSRKVTDREYERLIDYAISLGLKNGFMQEGETAKESFIPEFDGEGV” the value was “not soluble”.
Regarding “MDVTFLTKNVQINGTQFKILLQNGQGECALIALANVLLISPAHARYAQEISRLVRGKETVTLNELVQTLADMGVQNPNGTDVDKQQLLQILPQLYSGLNINPEFNGSFEDGVEMSIFRLYNVGIVHGWIIDGDNDPNSYEHVSKYSYMGAQKVLVQSYEIQKNNAQFENSEQIQSDAPYLKSFLARSATQLTEYGLTHLREILVERSYAVLFRNDHFCTLYKNNGELFTLVTDPTYRNRKDINWQSLKSVNGSQDSYYTGNFIPTSLERTETTATGQNESYISNPFSDQNTGHVTSNQVNSGASGVQQIEDDEELARRLQEQEDMRAANNMQNGYANNGRNHQRERFERPEKNSKKNKFLPFNGSNKEKKRDKLKKNCVIM”, the “soluble on expression in E. coli” value was “soluble”.
